Experimental data: PMC7812809 (Proceedings of the National Academy of Sciences of the …, 2020)
Blank lines part the entries; values can stand above or below the molecule they belong to.

What was measured:
Experiment in all cases: negative stain EM
[1] = biological target: Dendra2 T69A-LdcI (N-terminal fluorescent protein fusion of LdcI) (not stated | E. coli) (UniProt P0A9H3)
[2] = biological target: LdcI E445A/D447A/R468E triple mutant (E. coli) (UniProt P0A9H3)
[3] = biological target: LdcI R97E/R468E double mutant (E. coli) (UniProt P0A9H3)
[4] = biological target: LdcI-Dendra2 T69A (C-terminal fluorescent protein fusion of LdcI) (E. coli | not stated) (UniProt P0A9H3)
[5] = biological target: LdcI-mGeosM (C-terminal fluorescent protein fusion of LdcI) (E. coli | not stated) (UniProt P0A9H3)
negative stain EM = biological target: the molecule itself

stoichiometry N [1]: 2
Molecule: Dendra2 T69A-LdcI (N-terminal fluorescent protein fusion of LdcI) (from UniProt P0A9H3 1-715) (enzyme)

stoichiometry N [2]: 10
Molecule: LdcI E445A/D447A/R468E triple mutant (from UniProt P0A9H3 1-715) (enzyme)

stoichiometry N [3]: 10
Molecule: LdcI R97E/R468E double mutant (from UniProt P0A9H3 1-715) (enzyme)

stoichiometry N [4]: 10
Molecule: LdcI-Dendra2 T69A (C-terminal fluorescent protein fusion of LdcI) (from UniProt P0A9H3 1-715) (enzyme)

stoichiometry N [5]: 10
Molecule: LdcI-mGeosM (C-terminal fluorescent protein fusion of LdcI) (from UniProt P0A9H3 1-715) (enzyme)

Second part, the molecule before the results:

B1: LdcI E445A/D447A double mutant (enzyme, E. coli)
chain: MNVIAILNHMGVYFKEEPIRELHRALERLNFQIVYPNDRDDLLKLIENNARLCGVIFDWDKYNLELCEEISKMNENLPLYAFANTYSTLDVSLNDLRLQISFFEYALGAAEDIANKIKQTTDEYINTILPPLTKALFKYVREGKYTFCTPGHMGGTAFQKSPVGSLFYDFFGPNTMKSDISISVSELGSLLDHSGPHKEAEQYIARVFNADRSYMVTNGTSTANKIVGMYSAPAGSTILIDRNCHKSLTHLMMMSDVTPIYFRPTRNAYGILGGIPQSEFQHATIAKRVKETPNATWPVHAVITNSTYDGLLYNTDFIKKTLDVKSIHFDSAWVPYTNFSPIYEGKCGMSGGRVEGKVIYETQSTHKLLAAFSQASMIHVKGDVNEETFNEAYMMHTTTSPHYGIVASTETAAAMMKGNAGKRLINGSIERAIKFRKEIKRLRTASAGWFFDVWQPDHIDTTECWPLRSDSTWHGFKNIDNEHMYLDPIKVTLLTPGMEKDGTMSDFGIPASIVAKYLDEHGIVVEKTGPYNLLFLFSIGIDKTKALSLLRALTDFKRAFDLNLRVKNMLPSLYREDPEFYENMRIQELAQNIHKLIVHHNLPDLMYRAFEVLPTMVMTPYAAFQKELHGMTEEVYLDEMVGRINANMILPYPPGVPLVMPGEMITEESRPVLEFLQMLCEIGAHYPGFETDIHGAYRQADGRYTVKVLKEESKK
binding result (negative stain EM): binds

B2: LdcI H694A (enzyme, E. coli)
chain: MNVIAILNHMGVYFKEEPIRELHRALERLNFQIVYPNDRDDLLKLIENNARLCGVIFDWDKYNLELCEEISKMNENLPLYAFANTYSTLDVSLNDLRLQISFFEYALGAAEDIANKIKQTTDEYINTILPPLTKALFKYVREGKYTFCTPGHMGGTAFQKSPVGSLFYDFFGPNTMKSDISISVSELGSLLDHSGPHKEAEQYIARVFNADRSYMVTNGTSTANKIVGMYSAPAGSTILIDRNCHKSLTHLMMMSDVTPIYFRPTRNAYGILGGIPQSEFQHATIAKRVKETPNATWPVHAVITNSTYDGLLYNTDFIKKTLDVKSIHFDSAWVPYTNFSPIYEGKCGMSGGRVEGKVIYETQSTHKLLAAFSQASMIHVKGDVNEETFNEAYMMHTTTSPHYGIVASTETAAAMMKGNAGKRLINGSIERAIKFRKEIKRLRTESDGWFFDVWQPDHIDTTECWPLRSDSTWHGFKNIDNEHMYLDPIKVTLLTPGMEKDGTMSDFGIPASIVAKYLDEHGIVVEKTGPYNLLFLFSIGIDKTKALSLLRALTDFKRAFDLNLRVKNMLPSLYREDPEFYENMRIQELAQNIHKLIVHHNLPDLMYRAFEVLPTMVMTPYAAFQKELHGMTEEVYLDEMVGRINANMILPYPPGVPLVMPGEMITEESRPVLEFLQMLCEIGAHYPGFETDIAGAYRQADGRYTVKVLKEESKK
binding result (negative stain EM): binds

B3: LdcI H694N (enzyme, E. coli)
chain: MNVIAILNHMGVYFKEEPIRELHRALERLNFQIVYPNDRDDLLKLIENNARLCGVIFDWDKYNLELCEEISKMNENLPLYAFANTYSTLDVSLNDLRLQISFFEYALGAAEDIANKIKQTTDEYINTILPPLTKALFKYVREGKYTFCTPGHMGGTAFQKSPVGSLFYDFFGPNTMKSDISISVSELGSLLDHSGPHKEAEQYIARVFNADRSYMVTNGTSTANKIVGMYSAPAGSTILIDRNCHKSLTHLMMMSDVTPIYFRPTRNAYGILGGIPQSEFQHATIAKRVKETPNATWPVHAVITNSTYDGLLYNTDFIKKTLDVKSIHFDSAWVPYTNFSPIYEGKCGMSGGRVEGKVIYETQSTHKLLAAFSQASMIHVKGDVNEETFNEAYMMHTTTSPHYGIVASTETAAAMMKGNAGKRLINGSIERAIKFRKEIKRLRTESDGWFFDVWQPDHIDTTECWPLRSDSTWHGFKNIDNEHMYLDPIKVTLLTPGMEKDGTMSDFGIPASIVAKYLDEHGIVVEKTGPYNLLFLFSIGIDKTKALSLLRALTDFKRAFDLNLRVKNMLPSLYREDPEFYENMRIQELAQNIHKLIVHHNLPDLMYRAFEVLPTMVMTPYAAFQKELHGMTEEVYLDEMVGRINANMILPYPPGVPLVMPGEMITEESRPVLEFLQMLCEIGAHYPGFETDINGAYRQADGRYTVKVLKEESKK
binding result (negative stain EM): binds

B4: LdcI R97E (enzyme, E. coli)
chain: MNVIAILNHMGVYFKEEPIRELHRALERLNFQIVYPNDRDDLLKLIENNARLCGVIFDWDKYNLELCEEISKMNENLPLYAFANTYSTLDVSLNDLELQISFFEYALGAAEDIANKIKQTTDEYINTILPPLTKALFKYVREGKYTFCTPGHMGGTAFQKSPVGSLFYDFFGPNTMKSDISISVSELGSLLDHSGPHKEAEQYIARVFNADRSYMVTNGTSTANKIVGMYSAPAGSTILIDRNCHKSLTHLMMMSDVTPIYFRPTRNAYGILGGIPQSEFQHATIAKRVKETPNATWPVHAVITNSTYDGLLYNTDFIKKTLDVKSIHFDSAWVPYTNFSPIYEGKCGMSGGRVEGKVIYETQSTHKLLAAFSQASMIHVKGDVNEETFNEAYMMHTTTSPHYGIVASTETAAAMMKGNAGKRLINGSIERAIKFRKEIKRLRTESDGWFFDVWQPDHIDTTECWPLRSDSTWHGFKNIDNEHMYLDPIKVTLLTPGMEKDGTMSDFGIPASIVAKYLDEHGIVVEKTGPYNLLFLFSIGIDKTKALSLLRALTDFKRAFDLNLRVKNMLPSLYREDPEFYENMRIQELAQNIHKLIVHHNLPDLMYRAFEVLPTMVMTPYAAFQKELHGMTEEVYLDEMVGRINANMILPYPPGVPLVMPGEMITEESRPVLEFLQMLCEIGAHYPGFETDIHGAYRQADGRYTVKVLKEESKK
binding result (negative stain EM): binds
